Common to all, as to experiment: SPR; Biacore T100; FADD DED amine-coupled to CM5 chip; caspase-8 DEDs 250 to 5,000 nM as analyte in HBS-EP+ (10 mM HEPES pH 7.4, 150 mM NaCl, 3 mM EDTA, 0.05% P20), 25°C; apparent KD
Common to all, as to conditions: both partners purified
A general note: In SPR one partner is held on a chip, and binding of the other changes the refractive index at the surface.

Assay [1] has as its target T1, caspase-8 DEDs (residues 1-188), His-tagged, wild type (human, UniProt Q14790 1-188).
T1 construct: human caspase-8, tandem death-effector domains DED1 and DED2, residues 1-188; Cloned in pET-28a; also called His-caspase-8 DEDs (1-188); wild-type caspase-8 DEDs; source: E. coli BL21(DE3), purified (Ni-NTA, gel filtration); also co-expressed with FADD DED in E. coli and co-purified

Assay [2] has as its target T2, caspase-8 DEDs (residues 1-188) R5E/I128A, His-tagged (human, UniProt Q14790 1-188, R5E | I128A).
T2 construct: human caspase-8, tandem death-effector domains, residues 1-188; also called Caspase-8 DEDs (R5E/I128A); source: E. coli BL21(DE3), purified (Ni-NTA, gel filtration)

Assay [3] addresses T3, caspase-8 DEDs (residues 1-188) I128A, His-tagged (human, UniProt Q14790 1-188, I128A).
T3 construct: human caspase-8, tandem death-effector domains, residues 1-188; also called Caspase-8 DEDs (I128A); source: E. coli BL21(DE3), purified (Ni-NTA, gel filtration)

This passage reports Kd results from article PMC9628938, “DED Interaction of FADD and Caspase-8 in the Induction of Apoptotic Cell Death” (Journal of Microbiology and Biotechnology, 2022).

T2 sequence (Q14790 1-188 R5E/I128A): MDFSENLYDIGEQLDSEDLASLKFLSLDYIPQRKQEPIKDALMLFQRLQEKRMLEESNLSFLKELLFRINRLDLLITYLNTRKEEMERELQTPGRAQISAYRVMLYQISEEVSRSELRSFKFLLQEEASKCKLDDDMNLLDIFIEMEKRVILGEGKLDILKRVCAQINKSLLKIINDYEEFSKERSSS
T3 sequence (Q14790 1-188 I128A): as the sequence (Q14790 1-188 R5E/I128A) above, with E5R counted along it
T1 sequence (Q14790 1-188): as the sequence (Q14790 1-188 R5E/I128A) above, with E5R, A128I counted along it

B1: FADD DED (residues 1-83), His-tagged (domain or fragment, human, UniProt Q13158 1-83, looked up)
chain: MDPFLVLLHSVSSSLSSSELTELKFLCLGRVGKRKLERVQSGLDLFSMLLEQNDLEPGHTELLRELLASLRRHDLLRRVDDFE
notes: human FADD (MORT1), death-effector domain construct, residues 1-83; Cloned in pET-28a; also called wild-type FADD DED; Fas-associated death domain; source: E. coli BL21(DE3), purified (Ni-NTA, gel filtration); also co-expressed with caspase-8 DEDs in E. coli and co-purified
On to B1, for which the values for the Kd in assay [1], in assay [2] and in assay [3] were 38 nM, 236 nM and 61 nM, respectively.
